Paper PMC3024764 (The Journal of Biological Chemistry, 2010)

Biological target: Pim-1 kinase (SPR analysis) (UniProt P11309 1-313)
Test: SPR

Sequence of Pim-1 kinase (SPR analysis) (P11309 whole entry): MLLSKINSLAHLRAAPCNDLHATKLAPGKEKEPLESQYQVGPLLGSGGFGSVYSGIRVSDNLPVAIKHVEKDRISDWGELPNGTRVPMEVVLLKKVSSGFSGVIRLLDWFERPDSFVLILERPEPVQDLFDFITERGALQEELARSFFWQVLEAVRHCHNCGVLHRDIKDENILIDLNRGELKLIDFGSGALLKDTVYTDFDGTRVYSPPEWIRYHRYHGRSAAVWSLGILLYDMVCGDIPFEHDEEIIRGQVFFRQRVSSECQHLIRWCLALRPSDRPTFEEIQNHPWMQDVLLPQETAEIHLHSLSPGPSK

Kd: 4.25 µM
Binder: RRRRRRRRKKPGLDRDQT [R8-T198mu peptide]
